Reference: PMC3470550

Biological target: Cdk2/cyclin A complex (Cdk2 phosphorylated at threonine 160 with truncated cyclin A) (human) (UniProt P24941)

peptide corresponding to the Cdk binding domain of p27
IC50 of inhibition of Cdk2/cyclin A kinase activity (data not shown; 25% residual kinase activity even at peptide concentrations as high as 17 µM): 0.125 µM
